Measured values as given in the supplement of paper PMC10567573.

B1: VENTX (parent)
chain: VFQHHQYLSPLERKRLAREMQLSE

Variants of: B1
Assay: protein stability index of a GFP-peptide fusion (GPS, HEK-293T) (PSI 1-6); higher = more stable
Conditions: c terminus: a fixed tail appended
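Further: lentivirally expressed fusions sorted by FACS into six bins by GFP to DsRed ratio, PSI derived from sequencing read proportions per bin multiplied by bin number.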

Protein stability index of substitutions, site by site:
K14: H 1.97 | E 3.3 | D 3.01 | A 2.67 | C 2.98 | Q 2.12 | T 2.58 | P 2.4 | Y 2.58 | F 1.75 | I 2.88 | S 2.81
L22: E 2.85 | F 1.83 | Y 2.17 | N 3.04 | A 2.72 | K 3.62 | G 1.89 | W 1.96 | M 2.42 | P 2.68 | R 2.44 | T 3.12 | Q 2.38 | D 3.29 | V 2.27 | I 1.93
Q3: T 2.96 | E 3.84 | V 2.78 | A 3.03 | H 2.11 | W 1.79 | C 1.85 | G 2.82 | K 3 | M 2.27 | P 2.98
Q21: C 2.5 | W 2.43 | F 1.98 | G 2.51 | K 2.66 | S 2.77 | A 2.49 | N 2.29 | E 2.54 | H 2.68 | D 3.61 | L 2.59 | T 2.49 | R 2.99 | P 2.64
H5: M 3.19 | N 2.83 | C 2.17 | E 3.71 | R 1.93 | D 3.47 | L 2.42 | G 3.71 | Y 2.43 | T 4.21 | F 2.96 | I 2.08 | V 2.78 | P 3.21 | K 2.94
L16: W 2.01 | N 2.92 | G 2.9 | Q 2.7 | A 2 | P 2.78 | V 2.75 | E 3.1 | H 2.82 | M 2.48 | D 3.03 | I 2.71 | F 2.28
E19: I 1.86 | V 1.91 | Y 1.91 | D 2.67 | G 2.06 | P 2.44 | T 2.16 | W 1.91 | C 1.91 | S 2.42 | N 3.28 | R 2.38 | F 1.76 | L 1.81 | Q 3.09
Q6: S 2.3 | L 2.02 | A 2.75 | T 2.75 | V 2.42 | N 3.05 | I 2.17 | D 3.23 | F 1.84 | C 1.83 | G 2.51 | M 2.56
S9: R 2.64 | P 2.88 | V 2.08 | F 1.99 | C 2.17 | E 2.86 | D 2.73 | T 2.21 | K 2.39 | M 2.33 | W 1.52 | A 2 | I 1.69 | Y 2.21 | G 2.38
L8: C 2.22 | F 2.62 | E 3.66 | D 3.31 | K 3.6 | M 2.55 | W 1.83 | I 3.02 | V 2.41 | G 2.42 | S 2.09 | H 2.75 | T 2.4 | P 2.52 | R 2.25
M20: A 2.8 | G 2.71 | K 2.54 | Y 2.96 | N 2.53 | D 3.1 | Q 2.6 | P 2.78 | H 2.57 | E 3.28 | T 2.36 | C 3.43
V1: A 2.28 | W 1.92 | L 3.38 | P 2.35 | C 2.45 | M 2.38 | N 2.9 | K 2.6 | Y 2.36 | R 2.42 | I 2.36 | Q 2.19 | F 2.1 | T 2.88
S23: A 3.5 | T 2.44 | Y 2.42 | Q 3.04 | H 2.37 | D 2.66 | K 2.22 | C 2.41 | W 2.04 | G 2.5 | F 2.98 | L 2.84 | R 2.33 | E 3.23 | N 2.25 | V 2.18 | I 1.97
A17: C 1.84 | Y 3.02 | N 2.38 | D 2.45 | T 2.97 | E 2.93 | R 2.98 | Q 2.59 | W 2.24 | S 3.1 | H 2.24 | K 2.75 | M 2.32
R13: V 2.4 | I 2.26 | K 2.62 | E 2.44 | A 2.32 | C 2.45 | F 1.92 | Q 2.94 | G 1.83 | S 2.44 | M 2.43 | W 1.87 | D 2.56 | Y 1.77 | P 2.06
H4: A 3.37 | Y 2.21 | L 2.89 | T 3.06 | P 3.27 | C 2.56 | D 3.68 | E 3.52 | R 2.37 | I 2.43 | V 2.7 | N 2.85 | S 2.91 | W 2.03
R15: C 1.99 | A 1.79 | S 1.97 | F 1.72 | M 2.02 | D 2.6 | L 2.02 | Q 2.57 | E 2.41 | P 2.36 | W 2.21 | V 1.92 | G 2.6 | I 2.09 | Y 2.04 | K 2.44
E24: G 2.3 | D 2.48 | K 2.29 | R 1.95 | V 1.39 | Y 2.07 | A 2.14 | W 2.76 | T 2.27 | H 2.47 | M 2.39 | Q 2.5 | F 1.93 | S 2.65
F2: T 3.05 | G 3.57 | P 4.18 | N 2.97 | V 2.55 | A 2.11 | R 3.02 | E 4.48 | K 3.61 | W 2.42 | S 3.91 | Y 3.01 | C 3.08
L11: I 2.4 | K 3.03 | Q 2.73 | P 2.1 | T 2.93 | F 2.42 | Y 2.66 | R 2.31 | V 2.53 | C 2.4 | S 2.64
R18: D 2.77 | T 2.9 | H 2.74 | F 2.21 | S 3 | V 1.63 | I 2.67 | Q 2.73 | M 2.21 | N 2.34 | K 2.65 | L 2.33
Y7: L 2.5 | T 3.49 | C 2.5 | I 2.54 | R 2.42 | M 3.04 | A 2.98 | W 2.11 | D 3.84 | H 2.33 | P 3.33 | N 2.36 | S 2.68 | Q 3.27 | E 3.22
P10: W 1.96 | T 1.86 | Q 2.46 | G 2.23 | A 2.62 | Y 2.54 | M 2.23 | L 2.67 | V 2.63 | E 2.91 | D 2.31 | I 2.42
E12: K 1.82 | M 2.74 | C 1.98 | Y 2.19 | T 2.08 | A 1.96 | I 2.66 | G 2.07 | F 2.58 | V 2.74 | L 2.13 | R 2.45 | P 2.99 | S 2.74 | Q 2.33 | H 2.21 | N 2.56
